Experimental data: patent US20200362047A1 (CRESCENDO BIOLOGICS, published 2020)

biological target: T1, human CD137 expressed on the surface of CHO cells (human, UniProt Q07011 24-255); assay: FMAT ligand inhibition, CD137 Ligand on CHO human CD137 cells
T1 construct: Also used for the Jurkat reporter cells that express human CD137 (functional rows); also called CHO human CD137 cells; CHO huCD137
Method: In parallel to the binding assay, periplasmic extracts were tested for their ability to inhibit the interaction of human CD137 ligand protein with CHO human CD137 cells in an FMAT format. Total binding controls containing diluted periplasmic extract sample buffer and non-specific binding controls containing excess non-Fc tagged competitor were set up on each plate for data normalisation. Fluorescence signal was measured using the TTP Mirrorball and the FL2 median mean fluorescence intensity of gated used for the data normalisation. The data was expressed as a % of the total binding control (% control) after subtraction of the background signal determined from the non-specific binding control wells.
The ability of purified Humabody VH to inhibit the binding of CD137 Ligand to CHO human CD137 cells was measured in the FMAT ligand inhibition assay essentially as described in Example 6. VH inhibited the binding of human CD137 Ligand to human CD137.

T1 sequence (Q07011 24-255 limits assumed): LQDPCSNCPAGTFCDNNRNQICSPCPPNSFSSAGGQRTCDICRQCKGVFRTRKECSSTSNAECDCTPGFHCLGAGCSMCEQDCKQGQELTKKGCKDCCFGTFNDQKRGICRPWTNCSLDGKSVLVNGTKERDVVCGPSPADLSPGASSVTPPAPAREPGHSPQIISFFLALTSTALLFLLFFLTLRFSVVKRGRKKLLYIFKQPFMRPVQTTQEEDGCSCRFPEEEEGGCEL

Binder	IC50 [nM]
Humabody VH 1.109 (VHH, human single VH domain) VHH: EVQLVESGGGLVQPGGSLRLSCAATGFTLSNYWMNWVRQAPGKGLEWVANINQDGSERYYVDSVKGRFTISRDNAKNSLYLQMSSLRAEDTAVYYCARGGEGYGVDHYGLDVSGQGTTVTVSS	0.9
Humabody VH 1.110 (VHH, human single VH domain) VHH: EVQLVESGGGLVQPGGSLRLSCAASGFTLSNYWMNWVRQAPGKGLEWVANINQDGSERYYVDSVKGRFTISRDNAKNSLYLQMNSLRAEDTAVYFCARGGEGYGVDHYGLDVSGQGTTVTVSS	0.81
Humabody VH 1.90 (VHH, human single VH domain) VHH: EVQLVESGGGLVQPGGSLRLSCAASGFTFSSHWMTWVRQAPGKGLEWVAHIKEDGSEKYYEDSVEGRFTVSRDNAKNSVYLQMNSLRAEDTAVYYCARGGDGYSDSHFGVDVWGQGTTVTVSS	7.8
Humabody VH 1.92 (VHH, human single VH domain) VHH: EVQLVESGGGLVQPGGSLRLSCAASGFTFSSHWMTWFRQAPGKGLEWVAHIKEDGSEKYYEDSVKGRFTVSRDNAKNSVYLQMNSLRAEDTAVYYCARGGDGYSDSHFGVDVWGQGTTVTVSS	2.9
Humabody VH 1.91 (VHH, human single VH domain) VHH: EVQLVESGGGLVQPGGSLRLSCAASGFTFSSHWMTWFRQAPGKGLEWVAHIKEDGSEKYYVDSVKGRFTVSRDNAKNSVYLQMNSLRAEDTAVYYCARGGDGYSDSHFGVDVWGQGTTVTVSS	1.9
Humabody VH 1.102 (VHH, human single VH domain) VHH: EVQLVESGGGLVQPGGSLRLSCAASGFTFSSHWMTWFRQAPGKGLEWVAHIKEEGSEKYYVDSVKGRFTISRDNAKNSLYLQMNSLRAEDTAVYYCARGGDGYSDSHFGVDVWGQGTTVTVSS	1.7
Humabody VH 1.97 (VHH, human single VH domain) VHH: EVQLVESGGGLVQPGGSLRLSCAASGFTFSSHWMTWVRQAPGKGLEWVAHIKEDESEKYYVDSVKGRFTISRDNAKNSLYLQMNSLRAEDTAVYYCARGGVGYSISHFGVDVWGQGTTVTVSS	3.8
Humabody VH 1.93 (VHH, human single VH domain) VHH: EVQLVESGGGLVQPGGSLRLSCAASGFTFSSHWMTWFRQAPGKGLEWVAHIKEDGSEKYYEDSVEGRFTISRDNAKNSVYLQMNSLRAEDTAVYYCARGGDGYSDSHFGVDVWGQGTTVTVSS	0.7
Humabody VH 1.95 (VHH, human single VH domain) VHH: EVQLVESGGGLVQPGGSLRLSCAASGFTFSSHWMTWVRQAPGKGLEWVAHIKEDGSEKYYVDSVKGRFTISRDNAKNSLYLQMNSLRAEDTAVYYCARGGDGYSDSHFGVDVWGQGTTVTVSS	24
Humabody VH 1.104 (VHH, human single VH domain) VHH: EVQLVESGGGLVQPGGSLRLSCAASGFTFSSHWMTWFRQAPGKGLEWVAHIKEDGSEKYYVDSVKGRFTISRDNAKNSLYLQMNSLRAEDTAVYYCARGGVGYSDSHFGVDVWGQGTTVTVSS	1.1
Humabody VH 2.49 (VHH, human single VH domain) VHH: EVQLVESGGGLVKPGGSLRLSCAASGFTFSDYYMSWIRQAPGKGLEWVSYISGSGDIIDYADSVKGRFTISRDNAKNSLYLQMNSLRAEDTAVYYCAREDPRLTGTTDFDNWGQGTLVTVSS	42
Humabody VH 2.46 (VHH, human single VH domain) VHH: EVQLVESGGGLVKPGGSLRLSCAASGFTFSDYYMSWIRQAPGKGLEWVSYISGSGDIIDYADSVKGRFTISRDNAKNSLYLQMNSLRAEDTAVYYCAREDSRLTGTTDFDNWGQGTLVTVSS	78
Humabody VH 2.47 (VHH, human single VH domain) VHH: EVQLVESGGGLVKPGGSLRLSCAASGFTFSDYYMSWFRQAPGKGLEWVSYISGSGDIIDYADSVKGRFTISRDNAKNSLYLQMNSLRAEDTAVYYCAREDSRLTGTTDFDNWGQGTLVTVSS	8.8
Humabody VH 2.50 (VHH, human single VH domain) VHH: EVQLVESGGGLVKPGGSLRLSCAASGFTFSDYYMSWFRQAPGKGLEWVSYISGSGDIIDYADSVKGRFTISRDNAKNSLYLQMNSLRAEDTAVYYCAREDARLTGTTDFDNWGQGTLVTVSS	14
Humabody VH 2.45 (VHH, human single VH domain) VHH: EVQLVESGGGLVKPGGSLRLSCAASGFTFSDYYMSWFRQAPGKGLEWVSYISGSGDIIDYADSVKGRFTISRDNAKNSLYLQMNNLRAEDTAVYYCAREDSRLTGTTDFDNWGQGTLVTVSS	5.3

Next, values leading:

IC50 [nM]	Binder
0.55	Humabody VH 1.107 (VHH, human single VH domain) VHH: EVQLVESGGGLVQPGGSLRLSCAASGFTLSNYWMNWVRQAPGKGLEWVANINQDGSERYYVDSVKGRFTISRDNAKNSLYLQMSSLRAEDTAVYFCARGGEGYGVDHYGLDVSGQGTTVTVSS
0.5	Humabody VH 1.108 (VHH, human single VH domain) VHH: EVQLVESGGGLVQPGGSLRLSCAATGFTLSNYWMNWVRQAPGKGLEWVANINQDGSERYYVDSVKGRFTISRDNAKNSLYLQMNSLRAEDTAVYFCARGGEGYGVDHYGLDVSGQGTTVTVSS
0.75	Humabody VH 1.111 (VHH, human single VH domain) VHH: EVQLVESGGGLVQPGGSLRLSCAASGFTLSNYWMNWVRQAPGKGLEWVANINQDGSERYYVDSVKGRFTISRDNAKNSLYLQMSSLRAEDTAVYYCARGGEGYGVDHYGLDVSGQGTTVTVSS
0.47	Humabody VH 1.112 (VHH, human single VH domain) VHH: EVQLVESGGGLVQPGGSLRLSCAATGFTLSNYWMNWVRQAPGKGLEWVANINQDGSERYYVDSVKGRFTISRDNAKNSLYLQMNSLRAEDTAVYYCARGGEGYGVDHYGLDVSGQGTTVTVSS
1.3	Humabody VH 1.103 (VHH, human single VH domain) VHH: EVQLVESGGGLVQPGGSLRLSCAASGFTFSSHWMTWFRQAPGKGLEWVAHIKEDGSEKYYVDSVKGRFTISRDNAKNSLYLQMNSLRAEDTAVYYCARGGEGYSDSHFGVDVWGQGTTVTVSS
0.8	Humabody VH 1.94 (VHH, human single VH domain) VHH: EVQLVESGGGLVQPGGSLRLSCAASGFTFSSHWMTWFRQAPGKGLEWVAHIKEDGSEKYYEDSVEGRFTVSRDNAKNSLYLQMNSLRAEDTAVYYCARGGDGYSDSHFGVDVWGQGTTVTVSS
1.4	Humabody VH 1.100 (VHH, human single VH domain) VHH: EVQLVESGGGLVQPGGSLRLSCAASGFTFSSHWMTWFRQAPGKGLEWVAHIKEDESEKYYVDSVKGRFTISRDNAKNSLYLQMNSLRAEDTAVYYCARGGDGYSISHFGVDVWGQGTTVTVSS
2.1	Humabody VH 1.106 (VHH, human single VH domain) VHH: EVQLVESGGGLVQPGGSLRLSCAASGFTFSSHWMTWFRQAPGKGLEWVAHIKEDESEKYYVDSVKGRFTISRDNAKNSLYLQMNSLRAEDTAVYYCARGGEGYSISHFGVDVWGQGTTVTVSS
2.8	Humabody VH 1.105 (VHH, human single VH domain) VHH: EVQLVESGGGLVQPGGSLRLSCAASGFTFSSHWMTWFRQAPGKGLEWVAHIKEDESEKYYVDSVKGRFTISRDNAKNSLYLQMNSLRAEDTAVYYCARGGVGYSISHFGVDVWGQGTTVTVSS
7.9	Humabody VH 1.101 (VHH, human single VH domain) VHH: EVQLVESGGGLVQPGGSLRLSCAASGFTFSSHWMTWFRQAPGKGLEWVAHIKEGGSEKYYVDSVKGRFTISRDNAKNSLYLQMNSLRAEDTAVYYCARGGDGYSDSHFGVDVWGQGTTVTVSS
2.7	Humabody VH 1.96 (VHH, human single VH domain) VHH: EVQLVESGGGLVQPGGSLRLSCAASGFTFSSHWMTWFRQAPGKGLEWVAHIKEDGSEKYYVDSVKGRFTISRDNAKNSLYLQMNSLRAEDTAVYYCARGGDGYSDSHFGVDVWGQGTTVTVSS
4.7	Humabody VH 1.98 (VHH, human single VH domain) VHH: EVQLVESGGGLVQPGGSLRLSCAASGFTFSSHWMTWVRQAPGKGLEWVAHIKEDESEKYYVDSVKGRFTISRDNAKNSLYLQMNSLRAEDTAVYYCARGGEGYSISHFGVDVWGQGTTVTVSS
1.5	Humabody VH 1.99 (VHH, human single VH domain) VHH: EVQLVESGGGLVQPGGSLRLSCAASGFTFSSHWMTWFRQAPGKGLEWVAHIKEDESEKYYVDSVKGRFTISRDNAKNSLYLQMNSLRAEDTAVYYCARGGDGYSDSHFGVDVWGQGTTVTVSS
16	Humabody VH 2.41 (VHH, human single VH domain) VHH: EVQLVESGGGLVKPGGSLRLSCAASGFTFSDYYMSWFRQAPGKGLEWVSYISGSGDIIDYADSVKGRFTISRDNAKNSLYLQMNNLRAEDTAVYHCAREDSRLTGTTDFDNWGQGTLVTVSS
200	Humabody VH 2.42 (VHH, human single VH domain) VHH: EVQLVESGGGLVKPGGSLRVSCAASGFTFSDYYMSWIRQAPGKGLEWVSYISGSGDIIDYADSVKGRFTISRDNAKNSLYLQMNNLRAEDTAVYHCAREDSRLTGTTDFDNWGQGTLVTVSS
86	Humabody VH 2.48 (VHH, human single VH domain) VHH: EVQLVESGGGLVKPGGSLRLSCAASGFTFSDYYMSWIRQAPGKGLEWVSYISGSGDIIDYADSVKGRFTISRDNAKNSLYLQMNSLRAEDTAVYYCAREDARLTGTTDFDNWGQGTLVTVSS
27	Humabody VH 2.51 (VHH, human single VH domain) VHH: EVQLVESGGGLVKPGGSLRLSCAASGFTFSDYYMSWFRQAPGKGLEWVSYISGSGDIIDYADSVKGRFTISRDNAKNSLYLQMNSLRAEDTAVYYCAREDPRLTGTTDFDNWGQGTLVTVSS
